One molecule from patent US20240299546A1 can be followed below.

The Kd is the equilibrium constant for the complex coming apart. A lower Kd goes with tighter binding.

Assay [1] deals with HLA-A1-MAGE-A3 pMHC (human). The assay is described as follows: SPR, biotinylated HLA-A1-MAGE-A3 on streptavidin chip, soluble TCR flowed. (In general: In SPR one partner is held on a chip, and binding of the other changes the refractive index at the surface.)
Assay [2] addresses HLA-A1-TITIN pMHC (human). Briefly: SPR, biotinylated HLA-A1-TITIN on streptavidin chip, soluble TCR flowed.

B1: A3A TCR (TCR, V domains shown)
V domain 1: KQEVTQIPAALSVPEGENLVLNCSFTDSAIYNLQWFRQDPGKGLTSLLLVRPYQREQTSGRLNASLDKSSGRSTLYIAASQPGDSATYLCAVRPGGAGSYQLTFGKGTKLSVIP
V domain 2: KAGVTQTPRYLIKTRGQQVTLSCSPISGHRSVSWYQQTPGQGLQFLFEYFSETQRNKGNFPGRFSGRQFSNSRSEMNVSTLELGDSALYLCASSPNMADEQYFGPGTRLTVTE
On to B1, for which the results for the Kd in assay [1] and in assay [2] were 1.24 µM and 7.7 µM, respectively.
